{
  "source": "patent US20030190739A1",
  "about": "“Tankyrase2 materials and methods” (priority 1999, published 2003)",
  "test": "Poly(ADP-ribose) polymerase activity assay (32P-NAD+, SDS-PAGE, autoradiography)",
  "assay_type": "biochemical",
  "details": "250 ng protein, 10 min at room temperature, 2.5 μM unlabeled NAD+",
  "experimental": "For poly(ADP-ribose) polymerase activity assays, reagents were obtained from Sigma unless otherwise indicated. PARP1A/TANK2B (250 ng) protein was incubated for 10 min at room temperature in Assay buffer (total volume of 20 μL) [100 mM Tris-HCl, pH 8.0, 10 mM MgCl2, 10% glycerol, 1.5 mM DTT (Boehringer Mannheim/Roche Molecular Biochemicals), 2.5 μM unlabeled NAD^+, 16.7 μg/mL E. coli Strain B DNA, and 0.33 μCi γ-[^32P]-NAD^+ (NEN, Boston, Mass.). Reactions were stopped by boiling in SDS running buffer and separated by SDS-polyacrylamide gel electrophoresis (SDS-PAGE). Autoradiography was used to visualize labeled protein. Addition of poly(ADP-ribose) polymers to protein substrate results in an increase in molecular weight of the protein, and consequently causes the protein to run higher on SDS PAGE. Also, the level of poly(ADP-ribose) polymers added to the protein substrate can vary with each single protein molecule, resulting in labeled proteins with different molecular weights, which appears on the autoradiography film as a ladder or smear [for example, see Smith et al. Science 282:2484-7 (1998)]. […] The PARP1A/TANK2B poly(ADP-ribose) polymerase reaction produced a ladder of labeled protein from approximately 136 kDa to 250 kDa.",
  "data": [
    {"substance": "PARP1A/TANK2B: Fusion protein containing aa 1-662 of PARP1 fused upstream of aa 996-1385 of TANK2 (SEQ ID NO:178)", "values": [
      {"measurement": "intrinsic poly(ADP-ribose) polymerase activity", "result": "possessed intrinsic poly(ADP-ribose) polymerase activity"}
    ]}
  ]
}
